# Test results taken from the DeepSol protein solubility set.
# Assay: soluble on expression in E. coli; label from the status in PepcDB or PDB records
row,Sequence,soluble on expression in E. coli
1,MEEVIWEQYTVTLQKDSKRGFGIAVSGGRDNPHFENGETSIVISDVLPGGPADGLLQENDRVVMVNGTPMEDVLHSFAVQQLRKSGKIAAIVVKRPRKVQVAPLQGSPPLSHDDRGFEVIEEFDGRSFRSGYSERSRHSSHDMLSHSWEGNRERGRPHQRTQSRERERSRGRSLERGLDQEDYGRSRERSRGRSLERGLDRDFVSRDHSRGRSIDRDYDRDYERSYHEAYEPDYGGGYSPSYDRRAHPETRYERSRSREHLRSRSPSPESRSRHEHKGQHDPDRPIGVLLTKSKANEEYGLRLGSQIFIKEMTRTGLATKDGNLHEGDIILKINGTVTENMSLTDARKLIEKSRGKLQLVVLRDSKQTLINIPALNDSDSEVEDISEIESNRSFSPEERRQQYSDQDYHSSTEKLKERPSSREETSGRLSRMGATPTPFKSTGDITAAGVTEASREPRYQEEGPVPQPRTAPRVFLRPSPEDEAIYGPNTKMVRFKKGDSVGLRLAGGNDVGIFVAGIQEGTSAEQEGLQEGDQILKVNTQGFRGLVREDAVLYLLEIPKGETVTILAQSRADVYRDILACGRGDSFFIRSHFECEKETPQSLAFTRGEVFRVVDTLYDGKLGHWLAVRIGNELEKGLIPNKSRAEQMASVQNAQRENAGDRADFWRMRGQRSSGGVKKNLRKSREDLAAAVSVSTKFPAYEKVLLREAGFKRPVVLFGPIADIAMERSTELPDLFQTAKTEPKDAGSEKSSGVVRLNTVRQIIEQDKHALLDVTPKAVDLLNYTQWFPIVIFFNPDSRQGVKTIRQRLSPTSNKSSRKLFDQANKLKKTCSHLFTATINVNSANDGWFGSLKDSIQQQQNEAVWVSEGKMEGMDDDAEDRMSYLTAMGADYLSCDSRLISDFEDTDGEGGAYTDNELEEPAEEPLVSSITRSSEPVQHEENIRKSSPEPRAQMRRAASRDQLRELARPQPSSQSRPKARSQNREDSFDYSKSNLPATAGSEIPGGSTKGYPPPIAAKPAFGRPILKPSTPVPMPESEEVGESTEEQEDAPRSVLGRVKIFEKMDHKAKLQRMQELQEAQNARIEIAQKHPDIYAVPIKAPKPDAGLPPHMSSGPPEPQKAPSRLYQDTRGSYGSDPEEEEYRQQLAAHSKRGYYSQPSRYRDTEL,soluble
2,MEEVMALSEPEQNTWINRPEYSEVSEDRIVIVSDANTDFWENTYYDFSHYTGHVYGKETESDFTFQVRVKADFSALYDQAGIFIGGTETAWIKAGIEFNDGQPSIGCVVTNNNSDWSTGLFPGNPGDFWMRVTSKSDVIRIQYSIDGKNWPLLRLCTWPGTRKRFIGVMCCSPKRKGLSAEFTEILLTTPLDSDLHDLSLEHHHHHH,soluble
3,MEFIMKTRMFEEEGWIRKKCKVCGKPFWTLDPDRETCGDPPCDEYQFIGKPGIPRKYTLDEMREKFLRFFEKHEIYPHGRVKRYPVLPRWRDDVLLVGASIMDFQPWVISGEADPPANPLVISQPSIRFTDIDNVGITGRHFTIFEMMAHHAFNYPGKPIYWMDETVELAFEFFTKELKMKPEDITFKENPWAGGGNAGPAFEVLYRGLEVATLVFMQYKKAPENAPQDQVVVIKGEKYIPMETKVVDTGYGLERLVWMSQGTPTAYDAVLGYVVEPLKKMAGIEKIDEKILMENSRLAGMFDIEDLGDLRYLREQVAKRVGITVEELEKAIRPYELIYAIADHTKALTFMLADGVVPSNVKAGYLARLLIRKSIRHLRELGLEVPLSEIVALHIKELHKTFPEFKEMEDIILEMIELEEKKYAETLRRGSDLVRREIAKLKKKGIKEIPVEKLVTFYESHGLTPEIVKEIAEKEGVKVNIPDNFYSMVAKEAERTKEEKGEELVDFELLKDLPDTRRLYYEDPFMKEFDAKVLRVIKDWVILDATAFYPEGGGQPYDTGVLIVNGREVKVTNVQKVGKVIIHKVEDPGAFKEGMIVHGKIDWKRRIQHMRHHTGTHVLMGALVRVLGRHVWQAGSQLTTDWARLDISHYKRISEEELKEIEMLANRIVMEDRKVTWEWLPRTTAEQKYGFRLYQGGVVPGREIRVVKIEDWDVQACGGTHLPSTGLVGPIKILRTERIQDGVERIIFACGE,soluble
4,MEFKVGDTVVYPHHGAAVIEAIEHREMGGETLEYLVLQINQSDLVVRVPSKNAELVGVRDVVDDDGLQKVFGFLRETDVEEAGNWSRRFKANQERLASGDVNKVAEVVRDLWRRDQGKGLSAGEKRMLAKARQVLVGELALAENKDEKQTEEILAQVDATIERHRAENKGIEETKVEPLGDIDLDDLNFDDED,not soluble
5,MEFMMEIQGNRKELMVSKIKNGTVIDHIPAGRAFAVLNVLGIKGHEGFRIALVINVDSKKMGKKDIVKIEDKEISDTEANLITLIAPTATINIVREYEVVKKTKLEVPKVVKGILKCPNPYCITSNDVEAIPTFKTLTEKPLKMRCEYCETIIDENEIMSQILGANNK,soluble
6,MEFMRVLLIAGGVSPEHEVSLLSAEGVLRHIPFPTDLAVIAQDGRWLLGEKALTALEAKAAPEGEHPFPPPLSWERYDVVFPLLHGRFGEDGTVQGFLELLGKPYVGAGVAASALCMDKDLSKRVLAQAGVPVVPWVAVRKGEPPVVPFDPPFFVKPANTGSSVGISRVERFQDLEAALALAFRYDEKAVVEKALSPVRELEVGVLGNVFGEASPVGEVRYEAPFYDYETKYTPGRAELLIPAPLDPGTQETVQELALKAYKVLGVRGMARVDFFLAEGELYLNELNTIPGFTPTSMYPRLFEAGGVAYPELLRRLVELALT,soluble
7,MEFRKSPSPDGDRIELVAIYDHDERIDMNDLHRSLTGFRILTLRISATYDQDIERIAFLPTIDKLTFCKDLLNAYNFQRIIMQSYEGIKAIGSRRTRIKLNDLLAANISFPIFMNVILPDAQLNLFIKYLIAGSNHRLDGFLFAKTPNAADFNEAAIFKGVNYQPVGGREAYPEFRNIQFQLHPRTRVFYVTNNNGILATVYLDIGLRYRIDIFPAGLMSSFPLLRLPSNELTKVLRHMNPIAQLGFSLLSEKSKNRISLLRIFSDEVSISVCAYKRKEKLTLRLRNSLSSLEVHKCGPDLVIVLQNWSDCTKLDFRREMSLRHWIDHCMELATAKRIDELTLSSIKKKHKFGISLLSERLKNLICSLQVFTTDVEIILRRSIELKIVPLFLVIGQTGQIEISSFTHFFLDNFIWIRPQMSTRNWIDHCLELTNNHRLNKLIVEAGDNQEIDMDGFYRSLIGLHIKTLELKGTYSRSIQLFGSLSNVDTIVLDVELVQTTDYQRMVVLNHTKLVETRTNRVKFSLNDLLASNASFLQFTNLRIPDTQLNLFLKHWIAGSNQRQEGFSLTKEHDEQSYNQSVILKGIETRPAVRRSEHHKFDEIFTLPQYSRTLDITNCDGVEATVYFGKSWLFNLGPVTNLCCMLVWG,not soluble
8,MEFTDPYTVDSLQCFNGFHYRGYRINQSDTDKVNRLIAIIRQEREKNIGPAAGDIIEYTCRNGDWFQSAHIEEICDGHFKICLSGSIPFCYESGDGVGYNVHEGIWTYPKRAALKPAGIREKQFRTWGHAGKCANGEVYFMACVRAWQYTEPEPLYGRYTTRNWSKYHINRQPDPEHDGEFFYMTEGFTLYSREELDRLTGILHGKLFDGIYSNSLVLWGYHMKWEILTEQEWNETKAEIHISFLGKSPVKIITCDDTHTITVYKKK,not soluble
9,MEGFVLAGTSSGVGKTVATLATLTALEDAGYQPQPAKAGPDFIDPSHHEALVDTPSRTLDPWLAGEDGMRRTYWRGTGDICVVEGVMGLYDGTKTSTAAVAEGLDLPVVLVVDAKAGMESVAATALGFAQYADRIGVDIEVAGILAQRAHGGRHADGIRDALPEDLTYFGRIPPMSDLEIPDRHLGLHMGSEAGLDRDALSTAAETIDIERLVETARAPPEVATTERNTGDSPADRRVAVAQDSAFCFIYPSVLERLRSEASVEPFSPVAGDSVPDADAIYLPGGYPELHGESLETGGTLDEIAVRAADGVPVYGECGGLMALSESLTTTDGDTYEMAGVLPADIEMQDRYQALDHVELEARADTVAATSGAHRRGHEFHYSAATLGSDASFAFDMVRGDGIDGEHDGLTEYSTIGTYCHCHGESGAFDRLLAVPSKDILEHHHHHH,not soluble
10,MEGLEAYDYHLPPEQIAQEGVEPRDMARLMVVYREGPFRVAHKRVRDLPEFLRPGDVLVFNESKVIPARLLARKPTGGKVEILLVRERSPGLWEALLGPARKAPPGTRLLLLSPKDLAPVPGLQAEVVAVEEDGVRLLRFQGDLVAHLEEVGEVPLPPYIKAKIPMERYQTVYARRPGSVAAPTAGLHFTPELLERLREMGVELRFLTLHVGPGTFRPVKGDPEKHEMHAEPYAIPEEVAEAVNRAKAEGRRVVAVGTTVVRALESAYREGVGVVAGEGETRLFIRPPYTFKVVDALFTNFHLPRSTLLMLVAAFLGRERTLEAYRLAVAEGYRFYSLGDAMLIL,soluble
11,MEGLFESLPEGYREKLGRPGEYPFTRGIYPRMYLERLWTMRQYAGFSTAEESNARYRYLLSQGQTGLSVAFDLPTQLGLDPDHPMSVGEVGRVGVSIATLEDMQKLFDGIPLDQVSTSMTINAPAMMLLALYLLVAEAQGVPWDKVSGTVQNDILKEYFARGTYIYPPGPSMRLVTDIFEFCAAHVPRWNTISISGYHIREAGSTAAQEIAFTLADAKAYVRAALERGLDVDRFAPRLSFFFAAHGDIFEEAAKFRAARRLWARIMREEFGAKDPKSWMLRFHTQTGGSTLTAQEPLNNVVRTAYQALAAVLGGTQSLHTNAYDEALGLPTEKSALLALRTQQILAYESGVTRAIDPLGGSFYVEHLTDKLEREAEQILREIDALGGAVAAVEAGYFQRALEESAWQFQKEVEEGKRVIVGVNRFFDPNSPLNEPVPVQRIDPELHERRKRELAAFKANRDGESVRVGLERLREAARGEENLFPYVLEAFRRRATLGEVCGVLREEWGEYQPPR,soluble
12,MEGMDHGSHSMPMGASSDAPAQSRTPIPPVTDADRAAVYTSHSGHQVHDSAINSYFVADKLEWQDANDGSALAWDLSGWIGGDIDRLLLRSEGERTNGKTEEAEVQALWGHAVSSSWDVVAGARQDFKPGAPQTWAAFGLQGQAISDLDVEATAFIGDAGQTAARLEADYDLLLTNDLILQPTGELNFYGKNDPQRGNGSGLSTSEFGLRLRYEITPQFAPYVGVTWNRSYGKTADYAREDDEDVAQARLVVGLRLWFLEHHHHHH,not soluble
13,MEGWQRAFVLHSRPWSETSLMLDVFTEESGRVRLVAKGARSKRSTLKGALQPFTPLLLRFGGRGEVKTLRSAEAVSLALPLSGITLYSGLYINELLSRVLEYETRFSELFFDYLHCIQSLAGVTGTPEPALRRFELALLGHLGYGVNFTHCAGSGEPVDDTMTYRYREEKGFIASVVIDNKTFTGRQLKALNAREFPDADTLRAAKRFTRMALKPYLGGKPLKSRELFRQFMPKRTVKTHYE,soluble
14,MEHFHGNRWDQLRAVEADILCPPPADPFQIFPSGWTRASELSEKGWRELLDRRRSQSPPPREPSPDVRRAIRRTPPPRVNRVAPIRLPERRPLRQLNANDARRPAQDAANRINQENMRAGNIDNGQPRRRALSPTQLPGVRAIPKDFNRFFRGLLTPGEFFAKSQTRYLGPFDEMPTEDTLPAADEYIILQRMGRLPDSGKSIFRQVGNLST,not soluble
15,MEHFLQYVWQHRLYSSLSYGADAFFLEPEVIDPGMLNRDSGPDFFNAKVKVGDLLWAGNVEIHCRASDWVRHGHHLDPAYDNVVLHVVETDDLPIRHRISGEPVPVCVMHVDERLRANADFMLRTSLLPGCKDRLHELDSLEVHDWLDTLVVERLERKAAEVDRLYLSTSMDWNATAYILLARHFGFGLNNDALERLARSLPFAAIAKHRSNLLQVEALLLGQAGLLADLEDEYAEKLASEYAFLRHKFDLQPLDPSLFRLHRARPASFVHRRLGQLAAILHRCEFLFSSFVETVSAKELAQKLSVEASSYWASHYRFGKPTPVPSRSTLAAISSDALLINVAAPLRYAWLRGQSMEDYRERTIDFLRGIKPENNKPVRAFSQICRPADAAESQALIQLYREYCERRKCFFCRWGYRLLSCCKG,not soluble
16,MEHKKSTDSRSCSQLSTSMDNIQRNLMLLEIEKNEKSSFDDVITGAESDNGWEDCLRETESVQSQWITEQSTIAYPETTRVNCDGPQSYYELADLNYKPAENTVRLARVPSQYQLDALSEIFVFDVPQHIAVKKVEASFLPKYVNTSSEVAQNSVNTTPYFVNSEYVSEMLCNEYSETY,not soluble
